Changes are numbered by the printed parent chain.
T1: human MUC18 (human, UniProt P43121 24-646)
T1 sequence: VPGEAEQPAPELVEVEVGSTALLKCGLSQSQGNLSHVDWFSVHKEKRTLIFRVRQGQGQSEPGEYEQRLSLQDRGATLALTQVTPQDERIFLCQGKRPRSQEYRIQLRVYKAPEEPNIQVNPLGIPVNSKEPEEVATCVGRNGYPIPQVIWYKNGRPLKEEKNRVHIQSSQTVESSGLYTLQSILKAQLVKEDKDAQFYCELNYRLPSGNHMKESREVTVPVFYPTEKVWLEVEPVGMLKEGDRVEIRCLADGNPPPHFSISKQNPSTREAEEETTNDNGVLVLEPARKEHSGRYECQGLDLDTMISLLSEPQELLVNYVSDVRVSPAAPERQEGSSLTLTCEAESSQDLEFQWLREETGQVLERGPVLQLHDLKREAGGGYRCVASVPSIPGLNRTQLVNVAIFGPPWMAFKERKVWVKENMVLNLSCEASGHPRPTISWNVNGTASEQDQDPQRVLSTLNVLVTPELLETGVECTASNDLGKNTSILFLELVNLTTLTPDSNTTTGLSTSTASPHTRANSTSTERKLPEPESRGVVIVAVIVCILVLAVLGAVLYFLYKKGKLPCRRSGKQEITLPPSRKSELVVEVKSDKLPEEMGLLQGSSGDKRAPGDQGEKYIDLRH

T2: recombinant MUC18 protein (rProtein) (Homo sapiens (Human), UniProt P43121 24-559)
T2 sequence: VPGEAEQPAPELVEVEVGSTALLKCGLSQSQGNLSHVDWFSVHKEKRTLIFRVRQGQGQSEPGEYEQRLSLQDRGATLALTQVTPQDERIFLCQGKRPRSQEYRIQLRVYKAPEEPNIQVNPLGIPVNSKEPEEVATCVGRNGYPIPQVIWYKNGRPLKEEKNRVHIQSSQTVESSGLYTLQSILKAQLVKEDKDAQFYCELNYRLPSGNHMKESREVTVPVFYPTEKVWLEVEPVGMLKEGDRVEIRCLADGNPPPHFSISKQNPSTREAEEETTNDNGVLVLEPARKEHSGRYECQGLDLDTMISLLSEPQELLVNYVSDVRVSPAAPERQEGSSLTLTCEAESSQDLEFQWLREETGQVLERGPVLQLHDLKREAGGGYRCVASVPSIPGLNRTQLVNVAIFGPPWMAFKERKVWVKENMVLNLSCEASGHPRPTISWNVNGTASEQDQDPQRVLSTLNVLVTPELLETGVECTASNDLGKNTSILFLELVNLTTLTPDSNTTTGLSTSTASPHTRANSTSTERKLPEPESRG

B1: J253-vc-MMAE (antibody, V domains shown)
VH: QVQLQQSGAELVKPGASVKLSCKASGYTFTSYDINWVRQRPEQGLEWIGWIFPGDGSTDYNEKFKGKATLTTDKSSSTAYMQLSRLTSEDSAVYFCARYHFFDNWGQGTTLTVSS
VL: DIVITQDELSNPVTSGESVSISCRSSKSLLYKDGKTYLSWFLQRPGQSPQLLIYLMSTRASGVSDRFSGSGSGTDFTLEISRVKAEDVGVYYCQQLVEYPYTFGGGTKLEIK
modifications: maleimidocaproyl-Val-Cit-PAB-MMAE coupled to the antibody by a thiol-based reaction; sites and drug load not stated
B2: CL070333 (antibody, V domains shown)
VH: QVQLQQSGPELVKPGTSVKISCKASGFTFTGYYLHWLKQRPGQGLEWIGWIYPGNVNTEFNEKFKGQATLTADKSSSTAYMQLSSLTSEDSAVYFCARSGYFASSYEFAYWGQGTLVTVSA
VL: DIQMTQSPASLSASVGETVTITCRASENIYSYLAWYQQKQGKSPQLLVYNAKTLAEGVPSRFSVSGSGTHFSLKINSLQPEDFGSYYCQHHYGTPLTFGAGTKLELK
notes: also called anti-MUC18 antibody CL070333
B3: CL070341 (antibody, V domains shown)
VH: EVQLVESGGDLVRPGGSLKLSCAASGFTFSTYGMSWVRQSPDKRLEWVATINSRASYTYYPDSVKGRFTISRDNAKNTLYLQMSSLKSEDTGLYFCARHRRDWDSYYAMDYWGQGTSVTVSS
VL: NIMLTQSPSSLAVSTGDKVTMNCKSSQSVLYNSNQKNYLAWYQQKPGQSPTLLIYWASTSESGVPDRFTGSGSGTDFTLTISSVQAEDLAVYYCHQYLSSWTFGGGTKLEIK
notes: also called anti-MUC18 antibody CL070341
B4: CL070350 (antibody, V domains shown)
VH: AVQLVESGGDLLRPGGSLKLSCVASGFTFNNYGMSWVRQTPDKRLEWVATINRGGSYTYYTDSVKGRFTISRDNAKKTLYLQMSSLKSEDTAMYYCARHRRDWDSYYAMDYWGQGTSVTVSS
VL: B3 VL with L4M, T15A, T20A, N22S, Q27R, Q44L, T51K, S60R, L109V
notes: also called anti-MUC18 antibody CL070350
B5: J253 (antibody, V domains shown)
VH: B1 VH
VL: B1 VL
notes: also called anti-MUC18 antibody (J253)
B6: CL070336 (antibody, V domains shown)
VH: DVQLQESGPDLVKPYQSLSLTCTVTGYSITSGYSWHWIRQFPGNKLEWLGYMHYSATPNYNPSLKSRISITRDTSKNQFFLQLNSVTTEDTATYYCSRSLNWDVLDYWGQGTTLIVSS
VL: DIVLTQSPAYLPVSLGQRATISCRASKSVRTSGYNYLHWYQQKPGQPPKLLIYLASNPESGVPGRFSGSGSGTDFTLNIHPVEEEDSATYYCQHSREFPFTFGGGTQLEIK
notes: also called anti-MUC18 antibody CL070336
B7: CL070335 (antibody, V domains shown)
VH: B6 VH with Y15S, L49M, M52I, A56T, P58T, N84S, Y95F
VL: B6 VL with N35S, P58L, G64D, S87A, S95T, Q107K
notes: also called anti-MUC18 antibody CL070335
B8: CL070324 (antibody, V domains shown)
VH: EVLLQQSGPELVKPGASVKIPCKASGYTFTDYNMDWVKQSHGKSLEWIGDINPNNGATLYNQNFRGKATLTVDKSSSTAYMELRSLTSEDTAVYYCTRSGYDDYYALDYWGQGTSVTVSS
VL: QTVLTQSPAIMSASLGEEITLTCSASSSVGYMHWYQQKSGTSPKLLIYSTSNLASGVPSRFSGRGSGTFYSLTISTVEAEDAADYYCHQWSNYPSTFGTGTKLELK
notes: also called anti-MUC18 antibody CL070324
B9: CL070349 (antibody, V domains shown)
VH: DVQLQESGPGLVKPSQSLSLTCSVTGYSITSGFYWNWIRQLPGNKLEWLGYINFGGTNNYNPSLKIRGSITRDTSKNQFFLKLNSVTTEDTATYYCARGGNDGGFTYWGQGTLVTVSA
VL: ENVLTQSPAIVAASLGQKVTMTCRASSSVSSTYFHWYQQKSGASPKPLLHRTSNLASGVPARFSGSGSGTSYSLTISSVEAEDDATYYCHQWSGYPYTFGGGTKLEIK
notes: also called anti-MUC18 antibody CL070349
B10: CL070370 (antibody, V domains shown)
VH: QIQLVQSGPELKKPGETVKISCKTSGYTFTDYSMHWVKQAPRKGLKWMGWINTETGEPTYADDFKGRFAFSLETSASTAYLQINNLRNEDTATYFCVSYDYDAVSYWGQGTLVTVSA
VL: DIVMTQSHKFMSTSVGDRVNITCKASQYVGAAVAWYQQKPGQSPKLLIYWASTRHTGVPDRFTGSGSGTDFTLTINNVQSEDLADYFCQQYGNYRTFGGGTKLEIK
notes: also called anti-MUC18 antibody CL070370

target: T1, human MUC18; test: cell-based or functional assay

Binder	IC50 of cell viability, GAK cells [nM]	IC50 of cell viability, HMV-II cells [nM]	IC50 of cell viability, SK-MEL-2 cells [nM]
B1	0.297	0.103	0.115

target: T2, recombinant MUC18 protein (rProtein); test: ELISA titration, antibody with varying concentrations of recombinant MUC18 protein
Experimental: Antibodies were incubated with varying concentrations of recombinant MUC18 protein (rProtein).

Binding affinity [nM]	Binder
12.5	B2
50	B3
0.19	B4
0.39	B5
0.39	B6
0.39	B7
50	B8
1.56	B9
3.12	B10

Source: patent US20250367313A1 (MULTITUDE, published 2025)
